Consider eleven molecules from patent US20230050972A1 (MOMENTA PHARMACEUTICALS, published 2023).

Positions count from the first letter of the chain named. Where “and” joins values, the source holds several entries; their conditions need not be identical. Equal entries are not always repeated.

The target of assay [1] is T1, in-house generated I domain of α11β1 (human, UniProt Q9UKX5 159-349, limits assumed).
T1 construct: domain: I domain; also called human α11β1 I domain; α11β1 I Domain
T1 sequence (looked up): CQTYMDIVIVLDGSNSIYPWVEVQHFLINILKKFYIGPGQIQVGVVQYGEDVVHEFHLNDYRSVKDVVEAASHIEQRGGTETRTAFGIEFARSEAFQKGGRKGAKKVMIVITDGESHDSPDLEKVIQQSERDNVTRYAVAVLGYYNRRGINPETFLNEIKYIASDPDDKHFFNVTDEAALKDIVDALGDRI
Put plainly: binding to isolated I domain.

Assay [2] deals with T2, recombinant human α11β1 (human, UniProt Q9UKX5 23-1141; P05556 21-728).
T2 construct: Coated in ELISA; ELISA and SPR material treated as one molecule; also called HIS-tagged human α11β1; integrin alpha 11 beta 1
Put plainly: ELISA on recombinant human α11β1. As for the experimental part:
(§1) 0.25 μg/mL of target antigen (recombinant human or mouse α11β1) was plated in a 96-well plate over night at 4° C. Plates were washed (PBS with 0.1% Tween-20), blocked (PBS with 2% BSA and 0.05% Tween-20) for 1 hour at room temperature and incubated with a range of antibody concentrations for 1 hour at room temperature. Subsequently, plates were washed and incubated with biotinylated anti-rabbit/mouse/human IgG in a 1:1000 dilution buffer and incubated for 1 hour at room temperature. After washing the plates, Streptavidin HRP was added at 1:200 in dilution buffer and incubated for 1 hour at room temperature. Ultra TMB ELISA substrate solution was added and the plates incubated for 5 minutes on a plate shaker. The reaction was stopped by adding stop solution to each well and plates were read at 450 nm.

Assay [3] concerns the target T3, α11β1 on human myofibroblasts (MF) (human, UniProt Q9UKX5 23-1188; P05556 21-798).
T3 construct: whole, on cells
Put plainly: FACS on human myofibroblasts. As for the experimental part: Human Pulmonary Fibroblasts (ScienCell) were cultured in complete Fibroblast Growth Medium (ScienCell) until 80% confluent in T-150 flasks. Cells were washed and harvested using Accutase. Cells were seeded into T-150 flasks at 7,500 cells/cm² in complete FGF and cultured for 72 hours. Cells were then washed and starved in serum reduced medium for 24 hours. After starvation, cells were treated with TGFβ-1 (R&D Systems) for 72 hours. Cells were harvested using Accutase and seeded in 96-well conical bottom plates. Cells were blocked with Heat Inactived Fetal Bovine Serum (Gibco) for 30 minutes at 4° C. Cells were then incubated with anti-α11 antibodies at the doses described in each figure for 30 minutes at 4° C. A human anti-α11 antibody (Creative BioLabs) was included as a positive control as well as the appropriate IgG isotype negative controls. Cells were washed twice and incubated with PE conjugated secondary antibodies specific to the IgG class of the anti-α11 antibodies being tested for 30 minutes at 4° C. Cells were washed twice and fixed in 1% PFA for 30 minutes. Cells were acquired on a FACS Verse […]. Data were analyzed by gating on single cells and determining the geometric Mean Fluorescence Intensity (gMFI) in the PE channel for each sample.

Assay [4] deals with T4, recombinant mouse α11β1 (mouse, UniProt P61622 23-1141; P09055 21-728, limits assumed).
T4 construct: also called murine α11β1
Put plainly: ELISA on recombinant mouse α11β1. On the procedure:
as §1

Assay [5] deals with T2, recombinant human α11β1. Put plainly: ELISA, plate coated with recombinant human α11β1. As for the experimental part:
as §1

Assay [6] has as its target T4, recombinant mouse α11β1. Put plainly: ELISA, plate coated with recombinant mouse α11β1. As for the experimental part:
as §1

Assay [7] deals with human α11β1 expressed on the surface of CHO-K1 cells (human, UniProt Q9UKX5 23-1188). Put plainly: FACS on CHO-K1 hu α11β1 cells, estimated EC50. On the procedure:
200,000 cells (wild-type CHO-K1 cells or CHO-K1 cells expressing human α11) were incubated with each antibody at desired concentrations in FACS buffer for 30 min at 4° C. Then, the cells were washed with FACS buffer and incubated with secondary antibody at 1:100 dilution for 30 minutes at 4° C. Cells were then washed and fixed with 1% PFA in PBS for 20 minutes at room temperature; washed again and read on a cytometer in FACS buffer.
Binding EC₅₀ was estimated using data from Fluorescence-activated cell sorting (FACS) performed with CHO-K1 hu α11β1 cells. Four out of six mAbs tested had EC₅₀ results in the low nanomolar range (8-P20, 8-G15, 8-J17, 8-l14), while the remaining two mAbs were not as potent (9-G05 and 9-E16; both I domain binders).

Assay [8] concerns the target T1, in-house generated I domain of α11β1. Put plainly: ELISA on the human α11β1 I domain.

human α11β1 expressed on the surface of CHO-K1 cells, sequence (Q9UKX5 23-1188): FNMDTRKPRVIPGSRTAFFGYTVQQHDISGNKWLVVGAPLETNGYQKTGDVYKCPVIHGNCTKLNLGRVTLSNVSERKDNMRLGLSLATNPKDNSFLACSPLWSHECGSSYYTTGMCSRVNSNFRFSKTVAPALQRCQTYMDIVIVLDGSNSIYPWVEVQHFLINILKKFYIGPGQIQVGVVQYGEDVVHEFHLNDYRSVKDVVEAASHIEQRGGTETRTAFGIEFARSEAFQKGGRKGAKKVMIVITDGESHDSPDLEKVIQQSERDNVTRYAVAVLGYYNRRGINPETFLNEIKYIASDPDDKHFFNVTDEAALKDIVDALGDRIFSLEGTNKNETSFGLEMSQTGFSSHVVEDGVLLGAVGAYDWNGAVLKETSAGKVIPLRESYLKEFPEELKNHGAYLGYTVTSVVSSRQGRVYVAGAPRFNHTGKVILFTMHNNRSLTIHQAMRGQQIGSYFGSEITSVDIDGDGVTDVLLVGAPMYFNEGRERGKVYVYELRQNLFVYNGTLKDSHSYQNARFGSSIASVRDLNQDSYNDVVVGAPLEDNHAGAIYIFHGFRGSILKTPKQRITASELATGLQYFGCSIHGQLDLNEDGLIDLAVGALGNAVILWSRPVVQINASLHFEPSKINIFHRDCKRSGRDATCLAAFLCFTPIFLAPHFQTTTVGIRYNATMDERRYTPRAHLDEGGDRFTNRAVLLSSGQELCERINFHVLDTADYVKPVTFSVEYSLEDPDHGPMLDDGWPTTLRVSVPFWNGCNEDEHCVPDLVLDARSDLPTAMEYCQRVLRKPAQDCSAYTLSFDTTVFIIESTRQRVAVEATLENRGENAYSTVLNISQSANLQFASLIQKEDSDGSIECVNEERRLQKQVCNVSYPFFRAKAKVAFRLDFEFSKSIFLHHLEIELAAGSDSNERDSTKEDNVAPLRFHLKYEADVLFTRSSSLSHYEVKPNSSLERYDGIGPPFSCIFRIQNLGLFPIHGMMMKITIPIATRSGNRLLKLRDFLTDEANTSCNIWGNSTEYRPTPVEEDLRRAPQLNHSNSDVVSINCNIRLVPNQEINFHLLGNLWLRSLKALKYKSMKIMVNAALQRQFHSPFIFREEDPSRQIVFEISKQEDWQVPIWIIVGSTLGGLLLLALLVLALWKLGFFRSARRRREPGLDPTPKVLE
T3 sequence (Q9UKX5 23-1188, chain 1 of 2): as the sequence (Q9UKX5 23-1188) above
T3 sequence (P05556 21-798, chain 2 of 2): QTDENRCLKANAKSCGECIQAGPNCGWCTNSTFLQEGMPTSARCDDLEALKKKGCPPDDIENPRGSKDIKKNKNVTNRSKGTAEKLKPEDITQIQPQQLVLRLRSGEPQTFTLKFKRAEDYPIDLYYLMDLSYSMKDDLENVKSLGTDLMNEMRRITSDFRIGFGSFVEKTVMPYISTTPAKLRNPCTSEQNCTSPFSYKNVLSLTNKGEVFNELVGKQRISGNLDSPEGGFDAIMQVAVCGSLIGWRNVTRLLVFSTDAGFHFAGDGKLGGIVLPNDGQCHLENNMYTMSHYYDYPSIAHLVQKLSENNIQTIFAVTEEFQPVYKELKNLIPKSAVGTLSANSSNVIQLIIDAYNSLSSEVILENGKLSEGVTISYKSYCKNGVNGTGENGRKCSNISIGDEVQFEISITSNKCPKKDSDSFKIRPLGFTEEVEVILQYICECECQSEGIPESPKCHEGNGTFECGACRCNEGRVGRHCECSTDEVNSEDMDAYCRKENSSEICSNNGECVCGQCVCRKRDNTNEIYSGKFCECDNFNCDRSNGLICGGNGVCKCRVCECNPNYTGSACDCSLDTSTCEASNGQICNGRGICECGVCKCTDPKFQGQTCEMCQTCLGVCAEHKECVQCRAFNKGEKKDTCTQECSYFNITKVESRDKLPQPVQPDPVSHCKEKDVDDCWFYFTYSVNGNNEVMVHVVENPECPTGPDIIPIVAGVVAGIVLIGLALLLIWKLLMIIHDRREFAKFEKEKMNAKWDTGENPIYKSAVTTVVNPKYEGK
T4 sequence (P61622 23-1141 limits assumed, chain 1 of 2): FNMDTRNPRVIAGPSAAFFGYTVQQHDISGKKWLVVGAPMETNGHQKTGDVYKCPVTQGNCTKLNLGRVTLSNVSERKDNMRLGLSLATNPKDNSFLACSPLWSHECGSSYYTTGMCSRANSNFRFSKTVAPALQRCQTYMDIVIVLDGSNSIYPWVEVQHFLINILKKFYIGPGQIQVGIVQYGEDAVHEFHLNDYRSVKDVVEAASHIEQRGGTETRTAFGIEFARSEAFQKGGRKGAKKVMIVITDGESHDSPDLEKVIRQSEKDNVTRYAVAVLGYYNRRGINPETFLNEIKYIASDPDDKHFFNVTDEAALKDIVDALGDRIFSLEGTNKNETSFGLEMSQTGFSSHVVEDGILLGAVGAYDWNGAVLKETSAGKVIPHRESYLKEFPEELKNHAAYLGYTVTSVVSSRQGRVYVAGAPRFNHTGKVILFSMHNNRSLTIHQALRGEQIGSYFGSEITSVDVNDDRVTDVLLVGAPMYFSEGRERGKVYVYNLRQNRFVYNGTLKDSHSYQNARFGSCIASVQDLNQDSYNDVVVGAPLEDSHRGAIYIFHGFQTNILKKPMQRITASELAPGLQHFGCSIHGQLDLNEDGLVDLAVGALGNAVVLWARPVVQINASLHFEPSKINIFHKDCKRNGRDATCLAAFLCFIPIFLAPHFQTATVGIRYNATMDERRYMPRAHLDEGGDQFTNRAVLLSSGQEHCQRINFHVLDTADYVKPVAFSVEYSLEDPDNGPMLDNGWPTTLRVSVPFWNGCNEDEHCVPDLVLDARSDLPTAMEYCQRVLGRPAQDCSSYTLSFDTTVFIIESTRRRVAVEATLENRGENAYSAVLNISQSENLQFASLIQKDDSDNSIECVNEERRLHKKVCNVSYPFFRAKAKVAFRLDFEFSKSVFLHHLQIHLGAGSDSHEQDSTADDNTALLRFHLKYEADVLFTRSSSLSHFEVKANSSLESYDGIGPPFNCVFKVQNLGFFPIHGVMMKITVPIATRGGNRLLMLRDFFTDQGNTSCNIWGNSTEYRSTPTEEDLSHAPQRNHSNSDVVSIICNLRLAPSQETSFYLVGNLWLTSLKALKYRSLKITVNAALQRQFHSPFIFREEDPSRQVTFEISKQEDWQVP
T4 sequence (P09055 21-728 limits assumed, chain 2 of 2): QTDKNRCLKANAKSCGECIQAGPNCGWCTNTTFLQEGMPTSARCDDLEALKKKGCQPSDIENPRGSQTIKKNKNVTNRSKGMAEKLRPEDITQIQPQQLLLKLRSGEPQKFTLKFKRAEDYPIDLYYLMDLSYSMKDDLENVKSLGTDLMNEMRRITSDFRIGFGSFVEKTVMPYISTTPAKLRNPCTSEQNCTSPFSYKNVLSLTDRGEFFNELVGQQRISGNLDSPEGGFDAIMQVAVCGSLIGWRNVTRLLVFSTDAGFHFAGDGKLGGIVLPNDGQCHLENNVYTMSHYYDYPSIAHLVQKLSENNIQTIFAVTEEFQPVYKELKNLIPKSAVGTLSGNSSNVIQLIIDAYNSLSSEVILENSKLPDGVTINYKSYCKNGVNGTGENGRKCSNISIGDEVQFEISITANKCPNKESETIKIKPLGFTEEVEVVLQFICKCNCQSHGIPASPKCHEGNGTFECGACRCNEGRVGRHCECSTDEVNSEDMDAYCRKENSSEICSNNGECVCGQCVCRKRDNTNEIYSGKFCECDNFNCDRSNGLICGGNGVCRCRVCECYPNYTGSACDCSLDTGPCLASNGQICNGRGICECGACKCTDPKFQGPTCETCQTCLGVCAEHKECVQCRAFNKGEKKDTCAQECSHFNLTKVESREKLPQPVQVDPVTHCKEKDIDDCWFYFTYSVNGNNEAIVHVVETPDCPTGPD

B1: 7-H14 (antibody, V domains shown)
VH: QVQLQQPGAELVRPGASVKLSCKPSGYTFTSYWMNWVKQRPGQGLEWIGMIDPSDSETHYNQMFKDKATLTVDKSSNTAYMQLSSLTSEDSAVYYCAQIYYAYDKAYWGQGTLVTVSA
VL: DIVMSQSPSSLAVSVGEKVTMSCKSSQSLLYSSHQKNYLAWYQQKPGQSPKLLIYWASTRESGVPDRFTGSGSGTDFSLTISSVKAEDLAVYYCQEYYSWTFGGGTKLEIK
notes: mouse hybridoma IgG
As to B1, the binding result is on record as “no binding” in assay [1], “binds” with recombinant human α11β1 [2], “binds” in assay [3] and “binds” in the assay with recombinant mouse α11β1 [4].

B2: 8-P20 (antibody, V domains shown)
VH: KVMLVESGGALVKPGGSLKLSCVASGFTFSNYAMSWVRQTPEKRLEWVATISSGGYYTYYPDSVKGRFTISRDNARNTLFLQMSSLRSEDTAMFYCAREDDYGRYSYTMDYWGQGTSVTVSS
VL: DVVMTQTPLSLPVSLGDQVSISCRCSQSLVHSNGNTYLHWYLQKPGQSPQLLIYKISNRFSGVPDRFSGSGSGTDFTLKISRVEAEDLGVYFCSQSTHVPYTFGGGTELEIK
notes: mouse hybridoma IgG
In the case of B2, in the assay with recombinant human α11β1 [5], the “EC50 (read off the curve)” value is approximately 0.03 ng/mL. The binding result (in the assay with recombinant mouse α11β1 [6]; in assay [8]) was “no binding (tested: 1 µg/mL)” each time. Besides, the EC50 in assay [7] was 0.12 µg/mL and 0.8 nM.

B3: 8-J17 (antibody, V domains shown)
VH: QVQLQQSGAELAKPGASVKMSCKASGYTFTNYWMHWVKQRPGQGLEWIGYINPNNGYTEYNQRFKDKATLTADRSSTTAYMQLSSLTSEDSAVYYCARSDIITTDYWGQGTTLTVSS
VL: B2 VL with V19A, C25S, H31Y, Q50K, I56V, Y101W, E108K
notes: mouse hybridoma IgG
B3: the “EC50 (read off the curve)” value with recombinant human α11β1 [5] is approximately 0.1 ng/mL. In addition, the binding result (in the assay with recombinant mouse α11β1 [6]; in assay [8]) was “no binding (tested: 1 µg/mL)” each time. Also, in assay [7], the half-maximal effective concentration (EC50) is 0.33 µg/mL and 2.2 nM.

B4: 9-E16 (antibody, V domains shown)
VH: EVQLQQSGPELVKPGASVKISCKASGYTFTDYYMHWVKQKPGQGLEWIGEIYPGSGNPYYNEKFKGKATLTADKSSSSAYMQLSSLTSEDSAVYFCARTSYGRVGTGFAYWGQGTLVTVSA
VL: NFVMTQTPLSLPVSLGDQASISCRSSQSLLHSNGNTYLHWYLQKPGQSPKLLIYKVSNRFSGVPDRFSGSGSGTDFTLKINRVETEDLGIYFCSQSSHVPTFGAGTKLELK
notes: mouse hybridoma IgG
For B4, the “EC50 (read off the curve)” value was approximately 1 ng/mL with recombinant human α11β1 [5] and approximately 6 ng/mL with recombinant mouse α11β1 [6]. For the same molecule, the EC50 in assay [7] is 42.8 µg/mL and 285 nM.

B5: 8-G15 (antibody, V domains shown)
VH: EVQLQQSGPELVKPGASVRISCKASGYTFTDYYIHWVKQKPGQGLECIGEIYPGTDNTYYSKKFRGKATLTADKSSDTAYMQLSSLTSEDSAVYFCARGDYYRGYFDVWGAGTTVTVSS
VL: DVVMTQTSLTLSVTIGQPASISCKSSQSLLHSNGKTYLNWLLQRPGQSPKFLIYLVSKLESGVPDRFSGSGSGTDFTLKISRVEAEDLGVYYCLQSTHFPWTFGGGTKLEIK
notes: mouse hybridoma IgG
Take B5: the “EC50 (read off the curve)” value with recombinant human α11β1 [5] is approximately 0.03 ng/mL. For the same molecule, the binding result (with recombinant mouse α11β1 [6]; in assay [8]) was “no binding (tested: 1 µg/mL)” throughout. Also, the EC50 in assay [7] is 0.22 µg/mL and 1.5 nM.

B6: 6-O17 (antibody, V domains shown)
VH: QVQLQQPGAELVKPGASVKLSCKASGYTFTSYWMHWIKQRPGQGLEWIGEINPSNGGSNYNEKFKSKATLTVDKSSSTAYMQLSSLTSEDSAVYHCKSRGYWGQGTTLTVSS
VL: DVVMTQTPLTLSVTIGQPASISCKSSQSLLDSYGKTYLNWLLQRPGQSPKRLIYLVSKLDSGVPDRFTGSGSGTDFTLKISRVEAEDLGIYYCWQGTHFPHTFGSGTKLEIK
notes: mouse hybridoma IgG
In the case of B6, the binding result was “no binding” in assay [1], “binds” in the assay with recombinant human α11β1 [2], “binds” in assay [3] and “binds” in the assay with recombinant mouse α11β1 [4].

B7: A11B1_3B1 (antibody, V domains shown)
VH: QEQLEESGGGLVKPEGSLTLTCKASGFDLSSGYDMCWVRQAPGKGLEWIACIYADYSGSTYYASWVNGRFTISSSTSLNTVDLKMTSLTAADTATYFCARGATGNGGYGYYFNLWGPGTLVTVSS
VL: DIVMTQTPASVSEPVGGTVTIKCQASQNINSGLAWYQQKPGQPPKLLIYKASTLASGVSSRFKGSGSGTEFTLTISDLECADAATYYCQTYYYSSSSSDNAFGGGTEVVVKG
notes: recombinant rabbit IgG, full chains
B7: the binding result in assay [1] is reported as “no binding”; with recombinant human α11β1 [2], “binds”; in assay [3], “binds”; with recombinant mouse α11β1 [4], “no binding”.

B8: A11B1_16G7 (antibody, V domains shown)
VH: QEQLVESGGDLVKPGASLTLTCTASGFSFNKNYWMCWVRQAPGKGLEWIGCIYNGDGNTYYASWVNGRFTISKTSSTTVTLQMTSLTVADTAIYFCARLLNMWGPGTLVTVSS
VL: DIVMTQTPASVEAAVGGTVTIKCQASESIGNALAWYQQKPGQPPKLLIYTAATLASGVPSRFSGSGSGTEFTLTISGVQCDDAATYYCQSYYFTSVSSYGNAFGGGTEVVVKG
notes: as for B7
B8: the binding result in assay [1] is given as “no binding”; with recombinant human α11β1 [2], “binds”; in assay [3], “binds”; with recombinant mouse α11β1 [4] it was “binds”.

B9: A11B1_5A7 (antibody, V domains shown)
VH: QSLEESGGGLVQPEGSLTLACTASGFSFSSYYYICWVRQAPGTGLEWIGCINTGSDDTHYASWLKGRFTFSKASSTTLTLQMTSLTAADTATYFCARSSGSSDDAYDLWGPGTLVTVSS
VL: DVVMTQTPASVSEPVGGAVTIKCQASQSIGSNLAWYQHKPGQPPKLLIYFASSLASGVSSRFKGGRSGTQFTLTISDLECADAATYYCHCTYYPLSYVTFGGGTEVVVKG
notes: as for B7
Consider B9, for which the binding result in assay [1] is reported as “no binding”; with recombinant human α11β1 [2], “binds”; in assay [3], “binds”; with recombinant mouse α11β1 [4] it was “no binding”.

B10: 7D8B10 (antibody, V domains shown)
VH: EVKLEESGGGLVQPGMSVKLSCATSGFIFSDYWMEWVRQAPGKGLEWVAEIRNKANNYATYYGKSMKGRFTISRDDSKSIVYLQVNSIRSEDTAIYYCAPNFDYWGQGVMVTVSS
VL: DVVLTQTPPTLSATIGQSVSISCRSSQSLLHSTGNTYLNWLLQRPGQPPQLLIYLVSRLESGVPNRFSASGSGTDFTLKISGIEAEDLGVYYCVQSSHTPYTFGTGTKLELK
notes: rat hybridoma mAb
On to B10, for which the binding result in assay [1] is “no binding”; in the assay with recombinant human α11β1 [2] it was “binds”; in assay [3], “binds”; in the assay with recombinant mouse α11β1 [4] it was “no binding”.

B11: 8-I14 (antibody, V domains shown)
VH: EVQLQQSGPELVKPGASVKKSCKASGYTFTDYYMHWVKQKPGQGLEWIGKIYPGSGNTHYNEKFKGKATLTADKSSSTAYMQLSSLTSEDSAVYFCATNYYGYRAMNYWGQGSSVTVSS
VL: DIHLTQSPSSLSASLGERISLTCRASQDIYISLNWFQQKPDGTIKLLIYGTSSLDSGVPKRFSGSRSGSDYSLTISSLESEDFADYYCLQYASSPYTFGGGTKLEIK
notes: mouse hybridoma IgG; also called 8-l14; 8114
B11: the “EC50 (read off the curve)” value is approximately 0.2 ng/mL in the assay with recombinant human α11β1 [5] and approximately 6 ng/mL with recombinant mouse α11β1 [6]. Further, in assay [7], the EC50 was 1.22 µg/mL and 8.1 nM. In assay [8], the binding result is “no binding (tested: 1 µg/mL)”.
